Test results reported in US20130224224A1 (Boehringer Ingelheim, published 2013).
Read-outs that look alike come from different tables or passages of the source. One block for each binder: values may come before it.

Experiments:
cynomolgus CX3CR1 [1] = biological target: T1, cynomolgus CX3CR1 (cynomolgus, UniProt P49238 1-355 (human entry)); experiment: FACS binding, cynomolgus against human CX3CR1
T1 construct: transiently expressed on HEK293T cells; also called cyCX3CR1; cyno CX3CR1
T1 chain: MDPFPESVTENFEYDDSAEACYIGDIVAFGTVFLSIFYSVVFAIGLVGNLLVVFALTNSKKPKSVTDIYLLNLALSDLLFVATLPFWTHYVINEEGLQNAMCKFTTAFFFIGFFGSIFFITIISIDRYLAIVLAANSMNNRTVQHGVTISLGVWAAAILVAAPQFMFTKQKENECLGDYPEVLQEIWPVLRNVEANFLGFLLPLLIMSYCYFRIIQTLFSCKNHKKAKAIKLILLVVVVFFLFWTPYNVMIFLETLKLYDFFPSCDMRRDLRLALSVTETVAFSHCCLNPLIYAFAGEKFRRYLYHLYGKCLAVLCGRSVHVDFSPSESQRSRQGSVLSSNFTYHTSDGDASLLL

human CX3CR1 [2] = biological target: T2, human CX3CR1 (human, UniProt P49238 1-355); experiment: A647-fractalkine competition FACS, CHO-huCX3CR1
T2 construct: overexpressed on CHO, BA/F3 or HEK293T cells; also called huCX3CR1; hCX3CR1
T2 sequence: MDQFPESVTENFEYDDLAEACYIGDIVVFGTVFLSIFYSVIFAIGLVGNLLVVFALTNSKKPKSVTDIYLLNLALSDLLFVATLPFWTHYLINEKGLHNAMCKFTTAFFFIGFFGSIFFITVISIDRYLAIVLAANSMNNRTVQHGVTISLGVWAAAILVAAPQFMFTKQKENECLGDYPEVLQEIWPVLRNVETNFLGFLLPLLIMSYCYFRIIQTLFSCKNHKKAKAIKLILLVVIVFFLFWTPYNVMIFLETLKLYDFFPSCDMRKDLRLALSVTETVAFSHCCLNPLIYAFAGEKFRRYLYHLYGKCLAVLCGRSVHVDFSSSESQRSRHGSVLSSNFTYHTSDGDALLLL
Source text: (§1) Periplasmic extracts were screened in a human CX3CR1/human Fractalkine FACS competition assay to assess the blocking capacity of the expressed VHHs. Human CX3CR1 was presented on CHO cells overexpressing CX3CR1. Both a setup using cells harvested from an actively growing culture and a setup using frozen cells was used. As a detection reagent labeled fractalkine was used (R&D Systems, Minneapolis, Minn., USA) labeled with alexa647 (A647-Fractalkine) at a degree of labeling of 1. To setup the assay, first a titration series of the labeled fractalkine was performed on the CHO-huCX3CR1 cells in order to determine the EC50 value for binding. Initially screening was performed at a higher concentration of fractalkine (3 nM) to increase the assay robustness. To increase the sensitivity of the screening to a maximum, the EC30 concentration (1 nM) was chosen for subsequent screening. In brief 50 μl of periplasmic extract was added to 6 nM labeled fractalkine (50 μ;) and 200 000 CHO-huCX3CR1 cells. After one hour incubation at 4 C, cells were washed three times before read out was performed on a FACS Array (Becton Dickinson). First a gate was set on the intact cells as determined from the scatter profile. Next, dead cells were gated out by their fluorescence profile from the PI stain (Sigma, St Louis, US). The fluorescence profile from the alexa647 label was determined for each sample and used for calculation of blocking capacity. As controls, conditions were taken along where there was no VHH present in the peri extract or a known irrelevant VHH and samples were included where excess cold fractalkine was included. For each sample the percentage block was determined using the control samples to determine the assay window.
The inhibition of ligand binding to human CX3CR1 was investigated for the different formats as described in Example 4. For this characterization the BA/F3-huCX3CR1 cell line was used showing stable expression of the human CX3CR1 receptor. The alexa647 labeled ligand fractalkine was used at its EC30 concentration and thereby obtained IC50 values are reflective of the Ki values.

human CX3CR1 [3] = biological target: T2, human CX3CR1; experiment: FACS binding, HEK293T human CX3CR1
human CX3CR1 [4] = biological target: T2, human CX3CR1; experiment: cell-based or functional assay
cynomolgus CX3CR1 [5] = biological target: T1, cynomolgus CX3CR1; experiment: FACS binding, HEK293T cynomolgus CX3CR1
cynomolgus CX3CR1 [6] = biological target: T1, cynomolgus CX3CR1; experiment: FACS binding on cynomolgus CX3CR1 cells, anti-c-myc detection
Experimental: (§2) Initially, a FACS based binding setup was used to evaluate the cynomolgus cross reactivity. For this, the VHHs were incubated with the respective cells for 30 minutes at 4° C. followed by three wash steps and subsequently incubated with the detection reagents. As detection, a mouse anti-cmyc antibody (Serotec, MCA2200) followed by a goat anti-mouse antibody coupled to PE (Jackson 115-116-071) was used, each incubation for 30 minutes at 4° C., followed by three wash steps.

human CX3CR1 [7] = biological target: T2, human CX3CR1; experiment: A647-fractalkine competition FACS, HEK293-huCX3CR1
In short: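 VHHs compete with Alexa647-fractalkine for CX3CR1 on CHO, BA/F3 or transiently transfected HEK293T cells, with the labeled-ligand amount varying between setups. After 1 h at 4 °C and washing, PI-negative intact cells were gated by flow cytometry. IC50 follows from percentage block, with the window set by no/irrelevant-VHH and excess cold fractalkine controls.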

cynomolgus CX3CR1 [8] = biological target: T1, cynomolgus CX3CR1; experiment: A647-fractalkine competition FACS, HEK293T cynomolgus CX3CR1
In short: (§3)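 VHHs competed with Alexa647-labelled human fractalkine (degree of labelling 1, at its EC30 concentration) for human or cynomolgus CX3CR1 transiently expressed in HEK293T cells, with transfections matched by ligand binding. A647 fluorescence of intact, PI-negative cells was read by flow cytometry. % block was taken against no-VHH and excess cold fractalkine controls, giving IC50 values.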

human CX3CR1 [9] = biological target: T2, human CX3CR1; experiment: periplasmic extract, A647-fractalkine competition FACS, CHO-huCX3CR1
In short: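 Periplasmic VHH extracts competed with Alexa647-fractalkine (EC30, 1 nM; 3 nM initially) for binding to live or frozen CHO cells overexpressing human CX3CR1, 1 h at 4 C. FACS read on intact, PI-negative cells; percent block derived using no-VHH, irrelevant-VHH and excess cold fractalkine controls.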

human CX3CR1 [10] = biological target: T2, human CX3CR1; experiment: cell-based or functional assay; remark: listed apart in the source
human CX3CR1 [11] = biological target: T2, human CX3CR1; experiment: A647-fractalkine competition FACS, BA/F3-huCX3CR1
Source text: as §1
(§4) The blocking capacity towards the ligand fractalkine of the VHHs was evaluated in a human CX3CR1 competition FACS as outlined in Example 4. Either CHO-huCX3CR1 cells, BA/F3-huCX3CR1 cells or transiently transfected HEK293T cells were used. The amount of labeled ligand used in the different competition setups was also varied. The IC₅₀ values for VHHs blocking the interaction of human fractalkine to human CX3CR1 are depicted in Table 19.

cynomolgus CX3CR1 [12] = biological target: T1, cynomolgus CX3CR1; experiment: A647-fractalkine competition FACS, cynomolgus against human CX3CR1
In short: as §3

human CX3CR1 [13] = biological target: T2, human CX3CR1; experiment: A647-fractalkine competition FACS, HEK293T human CX3CR1
In short: as §3

human CX3CR1 [14] = biological target: T2, human CX3CR1; experiment: FACS binding on human CX3CR1 cells, anti-c-myc detection
Experimental: as §2

human CX3CR1 [15] = biological target: T2, human CX3CR1; experiment: A647-fractalkine competition FACS, CHO-huCX3CR1; remark: listed apart in the source
Source text: as §1, §4

cynomolgus CX3CR1 [16] = biological target: T1, cynomolgus CX3CR1; experiment: FACS binding, cynomolgus against human CX3CR1
Experimental: as §2

- ratio (cynomolgus/human EC50) (cynomolgus CX3CR1 [1]): 3.3
- % block (human CX3CR1 [2]): 91%
- IC50 (human CX3CR1 [2]): 0.7 nM
- EC50 (human CX3CR1 [3]): 2 nM
- % block, fractalkine induced chemotaxis (human CX3CR1 [4]): 79%
- IC50, fractalkine induced chemotaxis (human CX3CR1 [4]): 20 nM
- EC50 (cynomolgus CX3CR1 [5]): 6.8 nM
B1: CX3CR1BII009 (VHH)
chain: KVQLVESGGGLVQPGGSLRLSCATSGTIFSNNAMGWYRQAPGKKRDLVASISSSGSTNYADSVKGRFTVSRDNDKNTGYLQMNSLKPEDTGVYYCTLDARRGWNTAYWGQGAQVTVSSGGGGSGGGGSGGGGSGGGGSGGGGSGGGGSGGGGSEVQLVESGGGLVQAGGSLRLSCVASGRTFSSYAMGWFRQAPGKERAFVAGISGSASRKYYADSVKGRFTVSRDNARNTVYLQMNSLKPEDTAVYYCAASNSYPKVQFDYYGQGTQVTVSS
notes: expressed in E. coli as described for the monovalent VHHs

- EC50 (cynomolgus CX3CR1 [6]): 50 nM
- % block (human CX3CR1 [7]): 94%
- IC50 (human CX3CR1 [7]): 5.3 nM
- % block (cynomolgus CX3CR1 [8]): 91%
- IC50 (cynomolgus CX3CR1 [8]): 64 nM
- % block (human CX3CR1 [9]): 87.8%
- % block, fractalkine induced chemotaxis (human CX3CR1 [10]): 81%
- IC50, fractalkine induced chemotaxis (human CX3CR1 [10]): 70 nM
- % block (human CX3CR1 [11]): 99%
- IC50 (human CX3CR1 [11]): 5.5 nM
- ratio (cynomolgus/human IC50) (cynomolgus CX3CR1 [12]): 12.2
- % block (human CX3CR1 [13]): 94%
- IC50 (human CX3CR1 [13]): 5.3 nM
- EC50 (human CX3CR1 [14]): 0.84 nM
- % block (human CX3CR1 [15]): 102%
- IC50 (human CX3CR1 [15]): 2.7 nM
- ratio (cynomolgus/human EC50) (cynomolgus CX3CR1 [16]): 59.6
B2: CX3CR1BIIPMP54D5 (VHH)
VHH: EVQLVESGGGSVQAGESLRLSCAASGSIFSSNAMAWYRQAPPGKQRDLVALINSVGITKYADSVKGRFTISSDNAKNTVYLEMNSLKPEDTAVYYCTSDGRRGWDTRYWGQGTQVTVSS
notes: also called 54D05; CX3CR1BII54D5; not shown: C-terminal c-myc and His6 tags

- ratio (cynomolgus/human EC50) (cynomolgus CX3CR1 [1]): 154
- % block (human CX3CR1 [2]): 100%
- IC50 (human CX3CR1 [2]): 0.38 nM
- EC50 (human CX3CR1 [3]): 0.31 nM
- % block, fractalkine induced chemotaxis (human CX3CR1 [4]): 101%
- IC50, fractalkine induced chemotaxis (human CX3CR1 [4]): 4 nM
- EC50 (cynomolgus CX3CR1 [5]): 48 nM
B3: CX3CR1BII007 (VHH)
chain: EVQLVESGGGLVQAGGSLRLSCVASGRTFSSYAMGWFRQAPGKERAFVAGISGSASRKYYADSVKGRFTVSRDNARNTVYLQMNSLKPEDTAVYYCAASNSYPKVQFDYYGQGTQVTVSSGGGGSGGGGSGGGGSGGGGSGGGGSGGGGSGGGGSKVQLVESGGGLVQPGGSLRLSCATSGTIFSNNAMGWYRQAPGKKRDLVASISSSGSTNYADSVKGRFTVSRDNDKNTGYLQMNSLKPEDTGVYYCTLDARRGWNTAYWGQGAQVTVSS
notes: expressed in E. coli as described for the monovalent VHHs (c-myc, His6 tags there)
